{"source": "paper PMC2674207", "target": "importin-α (PBMCs) (human (endogenous in PBMCs)) (UniProt P52292)", "assay": "co-IP; PBMCs from seven steroid-naive asthma patients after inhaled FP (100 or 500 µg via a spacer) or placebo in vivo, blood taken at 1 and 2 h; densitometry of blots", "data": [{"substance": "phospho-GATA-3 (PBMCs) (from UniProt P23771 1-443) (natural protein)", "values": [{"measurement": "GATA-3–importin-α association (densitometry, median), 2 h after inhaled FP 500 µg", "result": 879}, {"measurement": "GATA-3–importin-α association (densitometry, median), reference before the decrease", "result": 13500}]}]}
